The numbers were not newly measured in paper PMC10171305, which cites them from elsewhere.

Read-outs that look alike come from different tables or passages of the source.

One may read the Kd as the equilibrium constant for the complex coming apart.

In series [1] the target is Spike (SARS-CoV-2) (UniProt P0DTC2).
Series [2] has the same target. The source holds these as a separate data set.

Chain of ASGR1 (P07306 whole entry): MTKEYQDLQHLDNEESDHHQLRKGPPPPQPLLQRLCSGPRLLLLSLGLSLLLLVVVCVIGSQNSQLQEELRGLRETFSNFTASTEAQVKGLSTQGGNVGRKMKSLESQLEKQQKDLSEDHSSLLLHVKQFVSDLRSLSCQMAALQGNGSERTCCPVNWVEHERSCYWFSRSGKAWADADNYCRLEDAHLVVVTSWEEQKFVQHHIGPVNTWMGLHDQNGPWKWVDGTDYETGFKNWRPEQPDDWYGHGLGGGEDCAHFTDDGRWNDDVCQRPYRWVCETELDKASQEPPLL
Chain of KREMEN1 (Q96MU8 20-392): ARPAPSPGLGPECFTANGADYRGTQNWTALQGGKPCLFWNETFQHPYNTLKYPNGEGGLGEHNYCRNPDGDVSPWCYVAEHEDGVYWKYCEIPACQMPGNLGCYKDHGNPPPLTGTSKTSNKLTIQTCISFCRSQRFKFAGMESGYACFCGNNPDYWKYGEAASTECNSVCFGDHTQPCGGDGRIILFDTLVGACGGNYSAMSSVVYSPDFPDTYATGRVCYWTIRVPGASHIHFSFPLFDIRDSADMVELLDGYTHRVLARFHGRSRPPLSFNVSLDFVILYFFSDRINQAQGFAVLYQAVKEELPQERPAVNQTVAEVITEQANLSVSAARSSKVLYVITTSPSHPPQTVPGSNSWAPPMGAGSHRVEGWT

Turning to ASGR1 (from UniProt P07306), the Kd with Spike (SARS-CoV-2) [1] was 94.8 nM. In the case of KREMEN1 (from UniProt Q96MU8), the Kd in the series with Spike (SARS-CoV-2) [2] is 19.3 nM.
